T1/2 data for 1 substance are collected here from patent US20060045884A1, “Vaccines for autoimmune and infectious disease” (Board of Regents, priority 2004, published 2006).

This experiment deals with HLA-A2.1 heavy chain with I125-labeled β2-microglobulin (heterotrimer dissociation assay) (human). As to the kind of experiment: dissociation of 125I-β2-microglobulin from the HLA-A2.1/peptide/β2m heterotrimer, HPLC gel filtration.

Turning to “HTLV-1 Tax peptide (aa 11-19) (from UniProt P03409 11-19) (peptide; other documents disagree on this pair)”, the T1/2 is 133 h.
